Source: patent US12269859B2, “Synthetic immune receptors and methods of use thereof” (Angeles Therapeutics, Inc., priority 2016, dated 2025)

B1: 070517-H02 (protein)
chain: MALPVTALLLPLALLLHAARPLEGKPIPNPLLGLDSTGSGEDLKNVFPPEVAVFEPSKAEIAHTQKATLVCLATGFYPDHVELSWWVNGKEVHSGVCTDPQPLKEQPALNDSRYCLSSRLRVSATFWQNPRNHFRCQVQFYGLSENDEWTQDRAKPVTQIVSAEAWGRADCGITSASYHQGVLSATILYEILLGKATLYAVLVSALVLMAMVKRKDSRGRAKRSGSGATNFSLLKQAGDVEENPGPTSMALPVTALLLPLALLLHAARPDIQMTQSPSSLSASVGDRVTITCKASDHINNWLAWYQQKPGQAPKLLIYGATTLETGVPSRFSGSGSGTDYTLTISSLQPEDFATYYCQQSWNTPWTFGQGTKLEIKRGGGGSGGGGSGGGGSQVQLQQPGAELVKPGASVKMSCKASGYAFSSYWINWMKQKPGQGLEWIGQIYPGDGDTNYNGKFKGRATLTADTSSSTAYMQLSSLTSEDSAVYFCARSITTVVGCAMDYWGQGTSVTVSSTREQKLISEEDGSGIQNPDPAVYQLRDSKSSDKSVCLFTDFDSQTNVSQSKDSDVYITDKCVLDMRSMDFKSNSAVAWSNKSDFACANAFNNSIIPEDTFFPSSDVPCDVKLVEKSFETDTNLNFQNLSVIGFRILLLKVAGFNLLMTLRLWSSRAKRSGSGVKQTLNFDLLKLAGDVESNPGPSRGHMTEYKPTVRLATRDDVPRAVRTLAAAFADYPATRHTVDPDRHIERVTELQELFLTRVGLDIGKVWVADDGAAVAVWTTPESVEAGAVFAEIGPRMAELSGSRLAAQQQMEGLLAPHRPKEPAWFLATVGVSPDHQGKGLGSAVVLPGVEAAERAGVPAFLETSAPRNLPFYERLGFTVTADVEVPEGPRTWCMTRKPGA
B2: 070517-G02 (protein)
chain: MALPVTALLLPLALLLHAARPLETPFPSLAPPIMLLVDGKQQMVVVCLVLDVAPPGLDSPIWFSAGNGSALDAFTYGPSPATDGTWTNLAHLSLPSEELASWEPLVCHTGPGAEGHSRSTQPMHLSGEASTARTCPQEPLRGTPGGALWLGVLRLLLFKLLLFDLLLTCSCLCDPAGPLPSPATTTRLRALGSHRLHPATETGGREATSSPRPQPRDRRWGDTPPGRKPGSPVRAKRSGSGVKQTLNFDLLKLAGDVESNPGPTSTMALPVTALLLPLALLLHAARPDIQMTQSPSSLSASVGDRVTITCKASDHINNWLAWYQQKPGQAPKLLIYGATTLETGVPSRFSGSGSGTDYTLTISSLQPEDFATYYCQQSWNTPWTFGQGTKLEIKRGGGGSGGGGSGGGGSQVQLQQPGAELVKPGASVKMSCKASGYAFSSYWINWMKQKPGQGLEWIGQIYPGDGDTNYNGKFKGRATLTADTSSSTAYMQLSSLTSEDSAVYFCARSITTVVGCAMDYWGQGTSVTVSSTRGKPIPNPLLGLDSTGSGEDLKNVFPPEVAVFEPSEAEISHTQKATLVCLATGFYPDHVELSWWVNGKEVHSGVCTDPQPLKEQPALNDSRYCLSSRLRVSATFWQNPRNHFRCQVQFYGLSENDEWTQDRAKPVTQIVSAEAWGRADCGFTSESYQQGVLSATILYEILLGKATLYAVLVSALVLMAMVKRKDSRGRAKRSGSGATNFSLLKQAGDVEENPGPSRGHMTEYKPTVRLATRDDVPRAVRTLAAAFADYPATRHTVDPDRHIERVTELQELFLTRVGLDIGKVWVADDGAAVAVWTTPESVEAGAVFAEIGPRMAELSGSRLAAQQQMEGLLAPHRPKEPAWFLATVGVSPDHQGKGLGSAVVLPGVEAAERAGVPAFLETSAPRNLPFYERLGFTVTADVEVPEGPRTWCMTRKPGA
B3: 020817-U02 (protein)
chain: MALPVTALLLPLALLLHAARPLEGKPIPNPLLGLDSTGSGEDLKNVFPPEVAVFEPSKAEIAHTQKATLVCLATGFYPDHVELSWWVNGKEVHSGVCTDPQPLKEQPALNDSRYCLSSRLRVSATFWQNPRNHFRCQVQFYGLSENDEWTQDRAKPVTQIVSAEAWGRADCGITSASYHQGVLSATILYEILLGKATLYAVLVSALVLMAMVKRKDSRGRAKRSGSGATNFSLLKQAGDVEENPGPTSMALPVTALLLPLALLLHAARPDILLTQSPATLSLSPGERATLSCRASQSVDNYGISFMNWYQQKPGQPPKLLIYAASNQGSGIPSRFSGSGSGTDFTLTISSLEPEDFAMYFCQQSNEVPRTFGGGTKLEIKGGGGSGGGGSGGGGSQVQLVESGGGLVEPGGSLRLSCMSGYAFSSSWMNWVRQMPGKGLEWMGRIYPGDGDTNYNGKFKERVTITADESTSTAYMELSSLKAEDTAVYFCARSEYWGNYWAMDYWGQGTLVTVSSTREQKLISEEDGSGIQNPDPAVYQLRDSKSSDKSVCLFTDFDSQTNVSQSKDSDVYITDKCVLDMRSMDFKSNSAVAWSNKSDFACANAFNNSIIPEDTFFPSSDVPCDVKLVEKSFETDTNLNFQNLSVIGFRILLLKVAGFNLLMTLRLWSSRAKRSGSGVKQTLNFDLLKLAGDVESNPGPSRGHMTEYKPTVRLATRDDVPRAVRTLAAAFADYPATRHTVDPDRHIERVTELQELFLTRVGLDIGKVWVADDGAAVAVWTTPESVEAGAVFAEIGPRMAELSGSRLAAQQQMEGLLAPHRPKEPAWFLATVGVSPDHQGKGLGSAVVLPGVEAAERAGVPAFLETSAPRNLPFYERLGFTVTADVEVPEGPRTWCMTRKPGA
B4: 012417-I04 (protein)
chain: MALPVTALLLPLALLLHAARPLEGKPIPNPLLGLDSTGSGEDLKNVFPPEVAVFEPSKAEIAHTQKATLVCLATGFYPDHVELSWWVNGKEVHSGVCTDPQPLKEQPALNDSRYCLSSRLRVSATFWQNPRNHFRCQVQFYGLSENDEWTQDRAKPVTQIVSAEAWGRADCGITSASYHQGVLSATILYEILLGKATLYAVLVSALVLMAMVKRKDSRGRAKRSGSGATNFSLLKQAGDVEENPGPTSMALPVTALLLPLALLLHAARPDILLTQSPATLSLSPGERATLSCRASQSVDYDGDSYLNWYQQKPGQPPKLLIYDASNLVSGIPPRFSGSGSGTDFTLTISRLEPEDFAVYHCQQSTEDPWTFGGGTKLEIKGGGGSGGGGSGGGGSQVQLVESGGGLVEPGGSLRLSCMSGYAFSSYWMNWVRQMPGKGLEWMGQIWPGDGDTNYNPSLKSRVTITADESTSTAYMELSSLKAEDTAVYFCARRETTTVGRYYYAMDYWGQGTLVTVSSTREQKLISEEDGSGIQNPDPAVYQLRDSKSSDKSVCLFTDFDSQTNVSQSKDSDVYITDKCVLDMRSMDFKSNSAVAWSNKSDFACANAFNNSIIPEDTFFPSSDVPCDVKLVEKSFETDTNLNFQNLSVIGFRILLLKVAGFNLLMTLRLWSSRAKRSGSGVKQTLNFDLLKLAGDVESNPGPSRGHMTEYKPTVRLATRDDVPRAVRTLAAAFADYPATRHTVDPDRHIERVTELQELFLTRVGLDIGKVWVADDGAAVAVWTTPESVEAGAVFAEIGPRMAELSGSRLAAQQQMEGLLAPHRPKEPAWFLATVGVSPDHQGKGLGSAVVLPGVEAAERAGVPAFLETSAPRNLPFYERLGFTVTADVEVPEGPRTWCMTRKPGA
B5: 020717-P08 (protein)
chain: MALPVTALLLPLALLLHAARPDILLTQSPATLSLSPGERATLSCKASQNVGTNVAWYQQKPGQPPKLLIYSATYRNSGIPARFSGSGSGTEFTLTITNVQSKDLADYFYFCQYNRYPYTSGGGTKLEIKRLEGKPIPNPLLGLDSTGSGEDLKNVFPPEVAVFEPSKAEIAHTQKATLVCLATGFYPDHVELSWWVNGKEVHSGVCTDPQPLKEQPALNDSRYCLSSRLRVSATFWQNPRNHFRCQVQFYGLSENDEWTQDRAKPVTQIVSAEAWGRADCGITSASYHQGVLSATILYEILLGKATLYAVLVSALVLMAMVKRKDSRGRAKRSGSGATNFSLLKQAGDVEENPGPTSMDWIWRILFLVGAATGAHSFEQVQLVESGGGLVEPGGSLRLSCMSGYAFSSYWMNWVRQMPGKGLEWMGQIYPGDGDTNYNGKFKGRVTITADESTSTAYMELSSLKAEDTAVYFCARKTISSVVDFYFDNWGQGTLVTVSSAEPKSPDKTHTCPPCPKDPKTREQKLISEEDLGSGIQNPDPAVYQLRDSKSSDKSVCLFTDFDSQTNVSQSKDSDVYITDKCVLDMRSMDFKSNSAVAWSNKSDFACANAFNNSIIPEDTFFPSSDVPCDVKLVEKSFETDTNLNFQNLSVIGFRILLLKVAGFNLLMTLRLWSSRAKRSGSGVKQTLNFDLLKLAGDVESNPGPSRGHMTEYKPTVRLATRDDVPRAVRTLAAAFADYPATRHTVDPDRHIERVTELQELFLTRVGLDIGKVWVADDGAAVAVWTTPESVEAGAVFAEIGPRMAELSGSRLAAQQQMEGLLAPHRPKEPAWFLATVGVSPDHQGKGLGSAVVLPGVEAAERAGVPAFLETSAPRNLPFYERLGFTVTADVEVPEGPRTWCMTRKPGA
B6: 012617-O05 (protein)
chain: MALPVTALLLPLALLLHAARPLEGKPIPNPLLGLDSTGSGEDLKNVFPPEVAVFEPSKAEIAHTQKATLVCLATGFYPDHVELSWWVNGKEVHSGVCTDPQPLKEQPALNDSRYCLSSRLRVSATFWQNPRNHFRCQVQFYGLSENDEWTQDRAKPVTQIVSAEAWGRADCGITSASYHQGVLSATILYEILLGKATLYAVLVSALVLMAMVKRKDSRGRAKRSGSGATNFSLLKQAGDVEENPGPTSMALPVTALLLPLALLLHAARPDILLTQSPATLSLSPGERATLSCKASQNVGTNVAWYQQKPGQPPKLLIYSATYRNSGIPARFSGSGSGTEFTLTITNVQSKDLADYFYFCQYNRYPYTSGGGTKLEIKRGGGGSGGGGSGGGGSQVQLVESGGGLVEPGGSLRLSCMSGYAFSSYWMNWVRQMPGKGLEWMGQIYPGDGDTNYNGKFKGRVTITADESTSTAYMELSSLKAEDTAVYFCARKTISSVVDFYFDNWGQGTLVTVSSTREQKLISEEDGSGIQNPDPAVYQLRDSKSSDKSVCLFTDFDSQTNVSQSKDSDVYITDKCVLDMRSMDFKSNSAVAWSNKSDFACANAFNNSIIPEDTFFPSSDVPCDVKLVEKSFETDTNLNFQNLSVIGFRILLLKVAGFNLLMTLRLWSSRAKRSGSGVKQTLNFDLLKLAGDVESNPGPSRGHMTEYKPTVRLATRDDVPRAVRTLAAAFADYPATRHTVDPDRHIERVTELQELFLTRVGLDIGKVWVADDGAAVAVWTTPESVEAGAVFAEIGPRMAELSGSRLAAQQQMEGLLAPHRPKEPAWFLATVGVSPDHQGKGLGSAVVLPGVEAAERAGVPAFLETSAPRNLPFYERLGFTVTADVEVPEGPRTWCMTRKPGA

System: target antigen-expressing cell line
Test: Jurkat NFAT-GFP assay, coculture with target cell lines expressing the respective target antigen (summary Table 10A)
Assay type: cell-based, human
Set-up: key: The signs +/−, +, 2+ etc. after the name of the cell lines indicate the relative degree of positivity on the Jurkat-NFAT-GFP assay as measured by the % GFP positive cells; +: relative degree of positivity on the Jurkat-NFAT-GFP assay as measured by the % GFP positive cells; 2+: relative degree of positivity on the Jurkat-NFAT-GFP assay as measured by the % GFP positive cells
Conditions: relative % GFP positive cells; for NFAT-GFP ASSAY Positive Cell lines: NALM6: SIR-expressing Jurkat-NFAT-GFP cells cocultured with NALM6; for NFAT-GFP ASSAY Positive Cell lines: RAJI: SIR-expressing Jurkat-NFAT-GFP cells cocultured with RAJI
Outline: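 Coculture of SIR-bearing Jurkat NFAT-GFP reporters with target cells, ~1:2 E:T, ~4–18 h. FACS quantified % GFP+ cells, ranked semi-quantitatively against parental Jurkat-NFAT-GFP.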

| Molecule | NFAT-GFP ASSAY Positive Cell lines: NALM6 | NFAT-GFP ASSAY Positive Cell lines: RAJI |
| --- | --- | --- |
| B1 | (+) | RAJI (2+), NALM6 |
| B2 | (+/−) | RAJI (+), NALM6 |
| B3 | (+/−) | RAJI (+), NALM6 |
| B4 |  | RAJI (+/−) |
| B5 |  | RAJI (+) |
| B6 |  | RAJI (+/−) |
